Experimental data published in paper PMC7591462, “The Diversity and Similarity of Transmembrane Trimerization of TNF Receptors” (Frontiers in Cell and Developmental Biology, 2020).

Molecular target: the molecule itself
Test: SDS-PAGE of bicelle-reconstituted protein; protein reconstituted in DMPC-DH6PC bicelles (q = 0.5; DMPC:DH6PC approximately 1:2), 20 mM sodium phosphate pH 6.8; mixed with LDS loading buffer without heating or reducing agents; NuPAGE 12% gel, 200 V on ice

B1: human TNFR1 TM fragment, residue 209-238 (TNFR1 TMH), C223A M233A (domain or fragment, UniProt P19438 209-238, looked up)
chain: GTTVLLPLVIFFGLALLSLLFIGLAYRYQR
notes: TNFR1 (tumor necrosis factor receptor 1), human, isoform 1, transmembrane fragment residues 209-238 with C223A and M233A; Released from His9-TrpLE by cyanogen bromide at a methionine added between TrpLE and the fragment; Isotope-labelled (15N, 13C, 2H) for NMR; also called TNFR TMH; TMH of TNFR1; source: reconstituted in DMPC-DH6PC bicelles; not shown: His9, N-terminal, cleaved; TrpLE, …
B1 was tested, and the “stoichiometry N” value was 3.
